Like-named read-outs stand apart in the source and are kept apart here.
Legend:
crystal structure = molecular target: the molecule itself; assay: crystal structure
[1] = molecular target: the molecule itself

Protein	stoichiometry N (crystal structure)	stoichiometry N [1]
rhesus rotavirus (RRV, serotype G3) VP7 trimer, recombinant (natural protein, UniProt P12476 51-326, looked up, N-linked glycan at Asn69) QNYGINLPITGSMDTAYANSTQEETFLTSTLCLYYPTEAATEINDNSWKDTLSQLFLTKGWPTGSVYFKEYTDIASFSVDPQLYCDYNVVLMKYDATLQLDMSELADLILNEWLCNPMDITLYYYQQTDEANKWISMGSSCTIKVCPLNTQTLGIGCLTTDTATFEEVATAEKLVITDVVDGVNHKLDVTTATCTIRNCKKLGPRENVAVIQVGGSDVLDITADPTTAPQTERMMRINWKKWWQVFYTVVDYVNQIIQAMSKRSRSLNSAAFYYRI	3	–
disulfide-linked variant of the VP7 trimer (cysteines substituted for Thr276 and Gln305) (natural protein, rhesus rotavirus (RRV, serotype G3), UniProt P12476 51-326, looked up, intersubunit disulfide between the cysteines at 276 and 305) QNYGINLPITGSMDTAYANSTQEETFLTSTLCLYYPTEAATEINDNSWKDTLSQLFLTKGWPTGSVYFKEYTDIASFSVDPQLYCDYNVVLMKYDATLQLDMSELADLILNEWLCNPMDITLYYYQQTDEANKWISMGSSCTIKVCPLNTQTLGIGCLTTDTATFEEVATAEKLVITDVVDGVNHKLDVTTATCTIRNCKKLGPRENVAVIQVGGSDVLDITADPCTAPQTERMMRINWKKWWQVFYTVVDYVNCIIQAMSKRSRSLNSAAFYYRI	–	3

— PMC2995306 (Science (New York, N.Y.), 2009)
